A word on the EC50: it is the concentration needed to bring the measured effect to its halfway point.

Where two headings read alike, the source gives them in different places.

From patent publication US20230357367A1 (GENERATE BIOMEDICINES, published 2023) come the findings set out here.

For test [1], the target named is T1, WIV1 Spike on pseudovirus (WIV1 (bat SARS-like coronavirus)). The test is described as follows: cell-based or functional assay.
In test [2] the target is T2, SARS-CoV-1 Spike on pseudovirus (SARS-CoV-1, UniProt P59594 14-1255). The test can be described thus: cell-based or functional assay.
Test [3] deals with T1, WIV1 Spike on pseudovirus. The test can be described thus: cell-based or functional assay. The source holds these as a separate data set.
Test [4] deals with T2, SARS-CoV-1 Spike on pseudovirus. The test can be described thus: cell-based or functional assay. This is another data set of the same source.
In test [5] the target is T1, WIV1 Spike on pseudovirus. The test can be described thus: cell-based or functional assay. The source holds these as a separate data set.
The target of test [6] is T2, SARS-CoV-1 Spike on pseudovirus. The test is described as follows: cell-based or functional assay. The source holds these as a separate data set.
The target in test [7] is SARS-CoV-1 spike trimer (recombinant) (SARS-CoV-1, UniProt P59594 14-1195).

B1: AB-1 (antibody, V domains shown)
VH: EVQLVESGAEVKKPGESLKISCKGSGYTFTRYWIGWVRQMPGKGLEWMGIIYPGDSDVRYSPSFQGHVTISADKSISTAYLQWNSLKASDTAMYYCARLPQYCSKGVCYRWFDPWGQGTLVTVSS
VL: EIVLTQSPSSVSASVGDRVTITCRASQGISSWLAWYQQKPGKAPKLLIYAASSLQSGVPSRFSGSGSGTDFTLTISSLQPEDFATYYCQQGHSFPYTFGQGTNLEIK
Regarding B1, the “IC50, pseudovirus neutralization” value turned out to be 0.069 µg/mL in test [1], 0.04 µg/mL in test [2], 0.0139 µg/mL in test [5] and 0.009 µg/mL in test [6]. Besides, the “% neutralization at 4.5 µg/ml, pseudovirus” value in test [3] was 101%; in test [4], 99%. The EC50 in test [7] is 0.065 µg/mL.
